According to US11278600B2, “Human alpha-galactosidase variants” (Codexis, Inc., priority 2014, dated 2022):
Numbering of substitutions follows the chain as printed.

Assays:
Assay type in all cases: biochemical
[1] = HTP-analysis of supernatants pretreated with base (MUGal hydrolysis); settings: activity of the variant/activity of Rd4BB (SEQ ID NO: 15); challenge at pH 9.65
Outline: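 Fluorescence of released 4-MU (Ex 355 nm, Em 448 nm) after carbonate quench reports MUGal hydrolysis by GLA variants secreted from INVSc1 yeast. Before the acidic (pH 4.3-4.8) 30-180 min reaction at 37° C, supernatants had been pre-incubated at pH 7.0-9.7 for 1-18 h at 37° C.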

[2] = HTP-analysis of supernatants pretreated with acid (MUGal hydrolysis); settings: activity of the variant/activity of Rd4BB (SEQ ID NO: 15); challenge at pH 3.7
Outline: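 MUGal hydrolysis was tracked by fluorescence (Ex 355 nm, Em 448 nm) after a 30-180 min reaction at 37° C. in pH 4.8 McIlvaine/citrate buffer, stopped with 1 M sodium carbonate. Beforehand, yeast (INVSc1) culture supernatants carrying GLA variants were held 1-3 h at 37° C. in acidic McIlvaine buffer, pH 3.3-4.3.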

[3] = HTP-analysis of yeast culture supernatants, no challenge (MUGal hydrolysis); settings: activity of the variant/activity of Rd4BB (SEQ ID NO: 15)
Outline: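 GLA variants were expressed in INVSc1 yeast grown in SD-Ura broth with glucose at 30° C., and culture supernatants were collected after 66-84 h. Supernatant was mixed with McIlvaine buffer pH 4.8 and MUGal (2 mM stock) in 50 mM citrate, 200 mM KCl, pH 4.6, incubated at 37° C. for 30-180 minutes, then quenched with sodium carbonate.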

B1: 495 (protein)
chain: LDNGLARTPTMGWLHWERFMCNLDCQEEPDSCISEKLFMEMAERMVSEGWKDAGYEYLCIDDCWMAPQRDSEGRLQADPQRFPHGIRQLANYVHSKGLKLGIYADVGNKTCAGFPGSFGYYDIDAQTFADWGVDLLKFDGCYCDSLENLADGYKHMSLALNRTGRSIVYSCEWPLYMWPFQKPNYTEIRQYCNHWRNFADIDDSWKSIKSILDWTSFNQERIVDVAGPGGWNDPDMLVIGNFGLSWNQQVTQMALWAIMAAPLFMSNDLRHISPQAKALLQDKDVIAINQDPLGKQGYQLRQGDNFEVWERPLSGLAWAVAMINRQEIGGPRSYTIAVASLGKGVACNPACFITQLLPVKRKLGFYEWTSRLRSHINPTGTVLLQLENPMQMSLKDLL
modifications: Synthetic Polypeptide sequence of Variant No. 495 of mature Human GLA
Relative Activity of GLA Variants After Challenge at pH 9.65 [1]: + (0.5 to 1.5 relative activity over Rd4BB (SEQ ID NO: 15))
Relative Activity of GLA Variants After Challenge at pH 3.7 [2]: + (0.5 to 1.5 relative activity over Rd4BB (SEQ ID NO: 15))
Relative Activity of GLA Variants After No Challenge (NC) [3]: + (0.5 to 1.5 relative activity over Rd4BB (SEQ ID NO: 15))

B2: 502 (protein)
chain: B1 chain with L386S, P389T
modifications: Synthetic Polypeptide sequence of Variant No. 502 of mature Human GLA
Relative Activity of GLA Variants After Challenge at pH 9.65 [1]: − (<0.5 relative activity over Rd4BB (SEQ ID NO: 15))
Relative Activity of GLA Variants After Challenge at pH 3.7 [2]: + (0.5 to 1.5 relative activity over Rd4BB (SEQ ID NO: 15))
Relative Activity of GLA Variants After No Challenge (NC) [3]: − (<0.5 relative activity over Rd4BB (SEQ ID NO: 15))

B3: 499 (protein)
chain: B1 chain with P389L
modifications: Synthetic Polypeptide sequence of Variant No. 499 of mature Human GLA
Relative Activity of GLA Variants After Challenge at pH 9.65 [1]: + (0.5 to 1.5 relative activity over Rd4BB (SEQ ID NO: 15))
Relative Activity of GLA Variants After Challenge at pH 3.7 [2]: + (0.5 to 1.5 relative activity over Rd4BB (SEQ ID NO: 15))
Relative Activity of GLA Variants After No Challenge (NC) [3]: + (0.5 to 1.5 relative activity over Rd4BB (SEQ ID NO: 15))

B4: 503 (protein)
chain: B1 chain with Q385C, P389T
modifications: Synthetic Polypeptide sequence of Variant No. 503 of mature Human GLA
Relative Activity of GLA Variants After Challenge at pH 9.65 [1]: + (0.5 to 1.5 relative activity over Rd4BB (SEQ ID NO: 15))
Relative Activity of GLA Variants After Challenge at pH 3.7 [2]: + (0.5 to 1.5 relative activity over Rd4BB (SEQ ID NO: 15))
Relative Activity of GLA Variants After No Challenge (NC) [3]: + (0.5 to 1.5 relative activity over Rd4BB (SEQ ID NO: 15))

B5: 496 (protein)
chain: B1 chain with P389T, M390V
modifications: Synthetic Polypeptide sequence of Variant No. 496 of mature Human GLA
Relative Activity of GLA Variants After Challenge at pH 9.65 [1]: + (0.5 to 1.5 relative activity over Rd4BB (SEQ ID NO: 15))
Relative Activity of GLA Variants After Challenge at pH 3.7 [2]: + (0.5 to 1.5 relative activity over Rd4BB (SEQ ID NO: 15))
Relative Activity of GLA Variants After No Challenge (NC) [3]: + (0.5 to 1.5 relative activity over Rd4BB (SEQ ID NO: 15))

B6: 498 (protein)
chain: B1 chain with P389T, M392I
modifications: Synthetic Polypeptide sequence of Variant No. 498 of mature Human GLA
Relative Activity of GLA Variants After Challenge at pH 9.65 [1]: + (0.5 to 1.5 relative activity over Rd4BB (SEQ ID NO: 15))
Relative Activity of GLA Variants After Challenge at pH 3.7 [2]: + (0.5 to 1.5 relative activity over Rd4BB (SEQ ID NO: 15))
Relative Activity of GLA Variants After No Challenge (NC) [3]: + (0.5 to 1.5 relative activity over Rd4BB (SEQ ID NO: 15))

B7: 500 (protein)
chain: B1 chain with P389T, M390A
modifications: Synthetic Polypeptide sequence of Variant No. 500 of mature Human GLA
Relative Activity of GLA Variants After Challenge at pH 9.65 [1]: + (0.5 to 1.5 relative activity over Rd4BB (SEQ ID NO: 15))
Relative Activity of GLA Variants After Challenge at pH 3.7 [2]: + (0.5 to 1.5 relative activity over Rd4BB (SEQ ID NO: 15))
Relative Activity of GLA Variants After No Challenge (NC) [3]: + (0.5 to 1.5 relative activity over Rd4BB (SEQ ID NO: 15))

B8: 501 (protein)
chain: B1 chain with P389T, M392G
modifications: Synthetic Polypeptide sequence of Variant No. 501 of mature Human GLA
Relative Activity of GLA Variants After Challenge at pH 9.65 [1]: + (0.5 to 1.5 relative activity over Rd4BB (SEQ ID NO: 15))
Relative Activity of GLA Variants After Challenge at pH 3.7 [2]: ++ (>1.5 to 2.5 relative activity over Rd4BB (SEQ ID NO: 15))
Relative Activity of GLA Variants After No Challenge (NC) [3]: + (0.5 to 1.5 relative activity over Rd4BB (SEQ ID NO: 15))

B9: 497 (protein)
chain: B1 chain with P389T, M390K
modifications: Synthetic Polypeptide sequence of Variant No. 497 of mature Human GLA
Relative Activity of GLA Variants After Challenge at pH 9.65 [1]: + (0.5 to 1.5 relative activity over Rd4BB (SEQ ID NO: 15))
Relative Activity of GLA Variants After Challenge at pH 3.7 [2]: ++ (>1.5 to 2.5 relative activity over Rd4BB (SEQ ID NO: 15))
Relative Activity of GLA Variants After No Challenge (NC) [3]: + (0.5 to 1.5 relative activity over Rd4BB (SEQ ID NO: 15))

B10: 371 (protein)
chain: LDNGLARTPTMGWLHWERFMCNLDCQEEPDSCISEKLFMEMAEWMVSEGWKDAGYEYLCIDDCWMAPQRDSEGRLQADPQRFPHGIRQLANYVHSKGLKLGIYADVGNKTCAGFPGSFGYYDIDAQTFADWGVDLLKFDGCYCDSLENLADGYKHMSLALNRTGRSIVYSCEWPLYMWPFQKPNYTEIRQYCNHWRNFADIDDSWKSIKSILDWTSRNQERIVDVAGPGGWNDPDMLVIGNFGLSWDQQVTQMALWAIMAAPLFMSNDLRHISPQAKALLQDKDVIAINQDPLGKQGYQLRKGDNFEVWERPLSGDAWAVAIINRQEIGGPRSYTIPVASLGKGVACNPACFITQLLPVKRQLGFYNWTSRLKSHINPTGTVLLQLENTMQMSLKDLL
modifications: Synthetic Polypeptide sequence of Variant No. 371 of mature Human GLA
Relative Activity of GLA Variants After Challenge at pH 9.65 [1]: + (0.5 to 1.5 relative activity over Rd4BB (SEQ ID NO: 15))
Relative Activity of GLA Variants After Challenge at pH 3.7 [2]: − (<0.5 relative activity over Rd4BB (SEQ ID NO: 15))
Relative Activity of GLA Variants After No Challenge (NC) [3]: + (0.5 to 1.5 relative activity over Rd4BB (SEQ ID NO: 15))
